US20260125465A1 (BROAD INSTITUTE, published 2026)

B1: Ab_119707 VHH antibody, 6×His tagged, purified (VHH)
VHH: EVQLVESGGGSVQAGETLRLSCTASGFTFDDSDMGWYRQAPGDECELVSTISSDGSTNYADSVKGRFTISQDNAKNTVYLQMTSLKPEDTAIYSCRTMASRIGCWGQGTLVTVSH
notes: Produced by Genscript in a mammalian cell line and purified
B2: Ab_119702 VHH antibody, 6×His tagged, purified (VHH)
VHH: DVQLVESGGGLVQAGGSLRLSCAASGFPYFSCCMSWHRQAPGKDRELVSSISSDGSTHYADSVRGRFTISKGNARNTLYLQMNSLKPEDTAVYFCAASPRQLGPYYAMDYWGQGTSVTVSH
notes: as for B1
B3: Ab_113415 VHH antibody, 6×His tagged, purified (VHH)
VHH: QVQLVESGGGLVQPGGSLRLSCAASGSMFSINAVAWYRQAPGEQREPVAAMTSGGSTIYADSVKGRFTISRDNAKNTVYLQMSSLKPEDTAVYYCNGGWSLAMDYWGQGTSVTVSH
notes: Produced by Genscript in a mammalian cell line and purified; The tag is written after the VHH only by convention
B4: Ab_119704 VHH antibody, 6×His tagged, purified (VHH)
VHH: QLQLVESGGGLVQPGGSLRLSCAASGFTLDNYAIGWFRQAPGKEREGVSSISSSGGSTNYADSVKGRFTVSRDNAKHTVYLQMNSLKPEDTAVYYCAGVGDYGRRAMGQGTSVTVSH
notes: as for B1
B5: Ab_119706 VHH antibody, 6×His tagged, purified (VHH)
VHH: QLQLVESGGGLVQPGGSLRLSCAASGFTLDYYAIGWFRQAPGKEREGVSYISSSGGSTNYADSVKGRFTISRDNAKNTVYLQMNSLKPEDTGVYSCAAAGGYGNSSRYWGQGTSVTVSH
notes: as for B1

These binders were tested against T1, soluble MSLN (Glu2-6-Gly580, Acro Bio Systems, MSN-H82E9-25 ug) (UniProt Q13421 296-580) (assay: biolayer interferometry (BLI) with soluble MSLN).
T1 construct: range 296-580; Detected with an anti-His secondary antibody in the CAR-T staining, so it carries a His tag; also called soluble mesothelin
T1 sequence (Q13421 other isoform, or with tags, fused parts or gaps limits assumed): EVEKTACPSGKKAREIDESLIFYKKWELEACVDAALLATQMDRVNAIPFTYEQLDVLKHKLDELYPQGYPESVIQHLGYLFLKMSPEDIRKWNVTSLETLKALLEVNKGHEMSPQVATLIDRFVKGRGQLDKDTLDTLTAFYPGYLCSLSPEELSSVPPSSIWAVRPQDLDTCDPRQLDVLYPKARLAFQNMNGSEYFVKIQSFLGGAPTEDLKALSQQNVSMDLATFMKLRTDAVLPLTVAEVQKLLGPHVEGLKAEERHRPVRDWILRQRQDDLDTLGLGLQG
Protocol: Experiments were undertaken to characterize the ability of the anti-MSLN VHH antibodies to bind MSLN. 6×His tagged (SEQ ID NO: 93) VHH antibodies were produced by Genscript in a mammalian cell line and purified. The purified VHH antibodies were tested using a flow cytometry-based assay to see how well they bound mesothelin expressed on cells (FIG. 9A). […] Also, biolayer interferometry (BLI) was used to accurately assess the binding affinity (Kd) of the anti-MSLN VHH antibodies (Table 5). BLI was conducted with soluble MSLN (Glu2-6-Gly580, Acro Bio Systems, MSN-H82E9-25 ug). […] After exposure to the media containing the soluble MSLN, an anti-His secondary antibody was used to detect CAR-T cells binding the MSLN. T cells expressing CARs containing the anti-MSLN VHH antibodies or SS1 as antigen binding domains bound the soluble MSLN.

Question: Which Kd does the source give for B1 here?
Answer: 5.95 nM

Question: With B2 as the binder, how does the Kd read?
Answer: 5.32 nM

Question: Which Kd does the source give for B3 here?
Answer: 3.69 nM

Question: With B4 as the binder, how does the Kd read?
Answer: 4.49 nM

Question: B5 was tested. Which Kd did it give?
Answer: 11.5 nM
